In assay [1] the target is 28/32 kDa heterodimeric protein on the surface of malignant B-cells. The assay is described as follows: whole cell indirect radioimmunoassay on HO-85 and Raji cells.
The target is the same in assay [2]. The assay is described as follows: Scatchard analysis, 125I-labelled antibody on Raji cells.
Assay [3] addresses T1, human CD3 antigen on the surface of T cells (human, UniProt P07766 23-207).
T1 construct: whole, on cells; also called human CD3 complex
Briefly: Scatchard analysis, 125I-labelled antibody on activated human T cells. As to the method:
Figure 11A: FIG. 11. (A). Displacement assay to compare the relative affinity of HuM291-Fos and M291 for their antigen. Sub-saturation amounts of murine M291-FITC on human T cells were displaced by increasing amounts of murine M291 or HuM291-Fos. T cells were resuspended in complete media at 2.5 ×10^6/ml. Dilutions of the test (HuM291-Fos) or control (murine M291) antibody were added and incubated at 4° C. for 1 hour. A fixed, subsaturation amount of murine M291-FITC was added, and the cells were incubated at 4° C. for 1 hour, wash d, and resuspended in 1% paraformaldehyde. The cells were then analyzed using flow cytometry. Values expressed in % inhibition of fluorescence intensity compared to no competitive antibody control. (B). Scatchard plot analysis of the binding of ^125I-label d HuM291-Fos to activated human T cells. […] The cells were washed in binding buffer (2% horse serum in PBS containing 0.1% sodium azide) and counted. Nonspecific binding was determined by inhibiting the specific binding with an excess of nonlabeled HuM291-Fos. The apparent K_a and the number of binding sites were calculated from the slope and th X axis intercept, respectively, of the Scatchard plot. […]
The relative affinity of murine M291 and HuM291-Fos F(ab'-zipper)_2 for T cells was evaluated using the displacement assay described above. […]

T1 sequence (P07766 23-207): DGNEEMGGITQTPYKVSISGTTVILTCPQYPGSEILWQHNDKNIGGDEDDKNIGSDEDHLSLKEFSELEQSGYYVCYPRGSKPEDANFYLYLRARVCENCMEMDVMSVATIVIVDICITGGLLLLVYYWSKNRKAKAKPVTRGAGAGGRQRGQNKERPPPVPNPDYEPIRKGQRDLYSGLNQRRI

B1: mouse 1D10 antibody (parent, IgG1/kappa) (antibody, V domains shown)
VH: QVQLKQSGPGLVQPSQSLSITCTGSGFSLTNYGVHWVRQSPGKGLEWLGVKWSGGSTEYNAAFISRLSISKDNSKSQVFFKMNSLQADDTAMYYCARNDRYAMDYWGQGTSVTVSS
VL: DIQMTQSPASLSASVGETVTITCRASENIYSYLAWYQQKQGKSPQLLVSNAKTLAEGVTSRFSGSGSGKQFSLKINSLQPEDFGNYYCQHHYGNSYPFGGGTKLEIK
For the molecule B1, the binding activity relative to tissue culture medium alone in assay [1] was found to be 5 times.

B2: humanized 1D10-IgG1 (antibody, V domains shown)
VH: QVQLQESGPGLVKPSETLSLTCTVSGFSLTNYGVHWVRQSPGKGLEWIGVKWSGGSTEYNAAFISRLTISKDTSKNQVSLKLNSLTAADTAVYYCARNDRYAMDYWGQGTLVTVSS
VL: DIQMTQSPSSLSASVGDRVTITCRASENIYSYLAWYQQKPGKAPKLLVSNAKTLAEGVPSRFSGSGSGKQFTLTISSLQPEDFATYYCQHHYGNSYPFGQGTKLEIKR
In assay [2], B2 gave a Ka of 2.3e+08 M⁻¹ and a sites per cell (sites per cell) of 500000.

B3: HuM291-Fos F(ab'-zipper)2 (antibody, V domains shown)
VH: QVQLVQSGAEVKKPGASVKVSCKASGYTFISYTMHWVRQAPGQGLEWMGYINPRSGYTHYNQKLKDKATLTADKSASTAYMELSSLRSEDTAVYYCARSAYYDYDGFAYWGQGTLVTVSS
VL: DIQMTQSPSSLSASVGDRVTITCSASSSVSYMNWYQQKPGKAPKRLIYDTSKLASGVPSRFSGSGSGTDFTLTISSLQPEDFATYYCQQWSSNPPTFGGGTKVEIKR
notes: Bivalent F(ab'-zipper)2 fragment without Fc; The heavy chain is the Fd-Fos (VH 1-120, CH1 121-218, modified hinge 219-238, Fos leucine zipper 239-279); 125I-labelled in the Scatchard analysis; also called humanized F(ab'-zipper)2 of M291
In turn, B3 registered a Ka in assay [3] of around 1.1e+09 M⁻¹.

Source of the values: patent US7381803 (PROTEIN DESIGN LABS, dated 2008).
